According to PMC11321701, “Generation and Characterization of Novel Pan‐Cancer Anti‐uPAR Fluorescent Nanobodies as Tools for Image‐Guided Surgery” (Advanced Science, 2024):
Like-named read-outs stand apart in the source and are kept apart here.

Tests used:
[1] = target: T1, recombinant murine urokinase plasminogen activator receptor (MuPAR) protein (Mus musculus, UniProt P35456); assay: SPR; kinetic binding parameters (ka, kd, KD) of purified Nbs toward recombinant H, M or CuPAR antigens; settings: both partners purified
T1 construct: 'Extracellular domain' is said of the immunogen; also called murine uPAR

[2] = target: T2, recombinant human urokinase plasminogen activator receptor (HuPAR) protein (Homo sapiens, UniProt Q03405)
Target sequence in this assay (Q03405 23-305): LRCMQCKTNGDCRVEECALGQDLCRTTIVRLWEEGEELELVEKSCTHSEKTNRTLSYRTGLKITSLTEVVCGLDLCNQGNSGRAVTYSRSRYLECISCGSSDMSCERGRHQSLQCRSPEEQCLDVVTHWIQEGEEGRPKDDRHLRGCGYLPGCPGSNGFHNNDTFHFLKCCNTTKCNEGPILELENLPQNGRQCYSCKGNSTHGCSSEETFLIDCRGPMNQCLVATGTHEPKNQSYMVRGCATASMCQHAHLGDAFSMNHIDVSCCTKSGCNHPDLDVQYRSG

[3] = target: T2, recombinant human urokinase plasminogen …; assay: SPR; kinetic binding parameters (ka, kd, KD) of purified Nbs toward recombinant H, M or CuPAR antigens; settings: both partners purified
Target sequence in this assay (Q03405 whole entry, looked up): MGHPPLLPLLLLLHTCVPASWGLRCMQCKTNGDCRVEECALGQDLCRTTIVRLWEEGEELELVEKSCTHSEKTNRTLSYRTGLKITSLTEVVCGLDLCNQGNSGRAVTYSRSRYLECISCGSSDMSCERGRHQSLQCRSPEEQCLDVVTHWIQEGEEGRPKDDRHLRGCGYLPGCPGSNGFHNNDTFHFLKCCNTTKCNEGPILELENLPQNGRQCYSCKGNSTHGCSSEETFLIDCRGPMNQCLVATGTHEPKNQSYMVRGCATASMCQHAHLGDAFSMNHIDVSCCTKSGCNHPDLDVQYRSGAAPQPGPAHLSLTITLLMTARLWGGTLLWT

[4] = target: T1, recombinant murine urokinase …; assay: ELISA; BE-ELISA: bacterial extracts of Nb clones on H, M or CuPAR protein, against uncoated control; cross-reactivity screening; settings: one partner purified

T1 sequence (P35456 whole entry, looked up, the tested form may be a part): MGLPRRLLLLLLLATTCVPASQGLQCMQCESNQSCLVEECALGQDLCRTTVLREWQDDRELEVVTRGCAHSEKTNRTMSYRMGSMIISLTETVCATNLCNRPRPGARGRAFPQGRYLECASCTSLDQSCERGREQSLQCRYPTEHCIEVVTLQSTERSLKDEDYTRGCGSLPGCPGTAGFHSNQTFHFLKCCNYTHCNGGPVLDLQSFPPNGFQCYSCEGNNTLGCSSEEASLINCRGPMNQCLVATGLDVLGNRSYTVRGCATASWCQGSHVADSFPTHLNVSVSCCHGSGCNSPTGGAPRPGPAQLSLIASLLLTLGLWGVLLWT

Kd [2] [nM]	Binder	other results
	Nb 13 (VHH, Nb 13 is the only member of its family; Nanobody from a llama immunized with human and murine uPAR; also called lead anti-MuPAR Nanobody; source: E. coli WK6, purified from the periplasm (osmotic shock, IMAC, SEC)) VHH: QVQLQESGGGLVQSGGSLRLSCAVSGIGFVYYAMRWWRQAPGKERELVAGITGASGNTNYAESVKDRFTISRDNASNTVYLQMNSLKPEDTAVYYCNAAPLIRFGPPKDYWGQGTQVTVSS	Kd [1]: < 10 nM
3	5A5 (Nb 16) (VHH) VHH: QVQLQESGGGLVQPGGSLRLSCAISGFTLDYYGIGWFRQAPGKEREGVSCISSSDGSTYYADSVKGRFTISRDNAKNTVYLQMNSLKPEDTAVYYCATRGASCYYSGSYSLGYDYWGQGTQVTVSS	
4.7	5H2 (Nb 18) (VHH) VHH: QVQLQESGGGLAQPGGSLRLSCTASGFTSDYYGIGWFRQAPGKEREGVSCISSSDGSTYYADSVKGRFTISRDNAKNTVYLQMNSLKPEDTAVYYCATRGASCYYTGSYSLGYDYWGQGTQVTVSS	
2.3	5B7 (Nb 17) (VHH) VHH: QVQLQESGGGLVQPGGSLRLSCAVSGSTLEYYGIGWFRQAPGKEREGVSCISSSDGSTYYADSVKGRFTISRDNAKNTVYLQMNSLKPEDTAVYYCATRGASCYYTGSYSLGYDYWGQGTQVTVSS	
	Nb 15 (VHH, Nanobody from a llama immunized with human and murine uPAR; The clone in bacterial extracts came before recloning into the expression vector, so its tags may differ from the purified form; also called anti-HuPAR Nb 15; lead anti-HuPAR/CuPAR Nanobody; source: E. coli WK6, purified from the periplasm (osmotic shock, IMAC, SEC); bacterial extracts for ELISA and SPR off-rate screening) VHH: QVQLQESGGGWVQPGGSLRLSCAASGFTLDYYGIGWFRQAPGKEREGVSCISSSDGSTYYADSVKGRFTISRDNAKNTVYLQMNSLKPEDTAVYYCATRGASCYYTGSYSLGYDYWGQGTQVTVSS	Kd [3]: < 10 nM; binding result [4]: no binding
